Test results: article PMC9482650, “Quantitative fragmentomics allow affinity mapping of interactomes” (Nature Communications, 2022)
Values belong to the binder of their own block, whether it stands above or below them.

Assays:
Assay in all cases: holdup assay
Design in all cases: key: below the threshold = too weak to quantify, mostly under pKd 3.1 to 4
[1] = molecular target: MAGI2_4, Q86UL8
[2] = molecular target: T1, APBA3_1, O96018
T1 sequence (O96018 389-490, limits assumed, looked up): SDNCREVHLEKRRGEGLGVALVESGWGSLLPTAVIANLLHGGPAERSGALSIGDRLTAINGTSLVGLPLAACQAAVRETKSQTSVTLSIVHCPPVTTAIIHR

[3] = molecular target: T2, HTRA3, P83110
T2 sequence (P83110 354-453, limits assumed, looked up): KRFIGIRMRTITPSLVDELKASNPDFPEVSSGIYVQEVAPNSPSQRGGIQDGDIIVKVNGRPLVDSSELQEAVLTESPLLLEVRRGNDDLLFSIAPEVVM

[4] = molecular target: HTRA1, Q92743
Sequence of HTRA1, Q92743 (Q92743 360-477): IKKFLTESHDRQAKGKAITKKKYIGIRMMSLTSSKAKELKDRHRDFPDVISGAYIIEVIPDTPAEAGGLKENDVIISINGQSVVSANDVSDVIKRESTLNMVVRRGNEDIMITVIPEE

[5] = molecular target: T3, APBA2_1, Q99767
T3 sequence (Q99767 563-664, limits assumed, looked up): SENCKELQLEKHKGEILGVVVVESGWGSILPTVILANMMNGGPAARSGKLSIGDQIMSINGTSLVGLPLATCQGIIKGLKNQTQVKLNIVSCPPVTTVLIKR

[6] = molecular target: MAST1, Q9Y2H9
Sequence of MAST1, Q9Y2H9 (Q9Y2H9 962-1065): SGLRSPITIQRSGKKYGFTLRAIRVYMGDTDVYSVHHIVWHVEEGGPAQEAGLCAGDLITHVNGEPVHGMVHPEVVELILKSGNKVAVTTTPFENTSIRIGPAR

[7] = molecular target: T4, SNTA1, Q13424
T4 sequence (Q13424 82-180, limits assumed, looked up): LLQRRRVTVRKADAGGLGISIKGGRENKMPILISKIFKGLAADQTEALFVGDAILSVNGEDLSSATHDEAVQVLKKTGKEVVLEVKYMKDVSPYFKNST

[8] = molecular target: T5, PARD3B_1, Q8TEW8
T5 sequence (Q8TEW8 196-299, limits assumed, looked up): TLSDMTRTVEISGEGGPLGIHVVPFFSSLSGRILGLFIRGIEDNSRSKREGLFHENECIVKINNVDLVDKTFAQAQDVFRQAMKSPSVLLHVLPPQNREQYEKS

[9] = molecular target: IL16_1, Q14005
Sequence of IL16_1, Q14005 (Q14005 210-306): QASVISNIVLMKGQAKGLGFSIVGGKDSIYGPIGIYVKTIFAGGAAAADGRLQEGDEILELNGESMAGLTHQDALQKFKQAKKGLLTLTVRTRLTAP

[10] = molecular target: GRIP2_5, Q9C0E4
Sequence of GRIP2_5, Q9C0E4 (Q9C0E4 544-642): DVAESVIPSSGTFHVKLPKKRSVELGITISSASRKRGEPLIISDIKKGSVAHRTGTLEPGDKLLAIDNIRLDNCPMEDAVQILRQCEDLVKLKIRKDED

[11] = molecular target: SCRIB_1, Q14160
Sequence of SCRIB_1, Q14160 (Q14160 718-814): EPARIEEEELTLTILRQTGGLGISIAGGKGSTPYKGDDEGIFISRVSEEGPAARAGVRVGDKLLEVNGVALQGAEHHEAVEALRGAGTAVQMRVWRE

[12] = molecular target: IL16_4, Q14005
Sequence of IL16_4, Q14005 (Q14005 1229-1329): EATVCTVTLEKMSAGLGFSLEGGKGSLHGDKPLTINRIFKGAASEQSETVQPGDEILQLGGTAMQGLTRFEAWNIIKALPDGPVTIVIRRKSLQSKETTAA

[13] = molecular target: T6, DLG3_3, Q92796
T6 sequence (Q92796 374-475, limits assumed, looked up): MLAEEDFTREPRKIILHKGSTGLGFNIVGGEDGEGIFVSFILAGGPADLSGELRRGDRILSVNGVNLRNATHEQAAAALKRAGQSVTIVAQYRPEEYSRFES

[14] = molecular target: T7, DLG3_2, Q92796
T7 sequence (Q92796 221-321, limits assumed, looked up): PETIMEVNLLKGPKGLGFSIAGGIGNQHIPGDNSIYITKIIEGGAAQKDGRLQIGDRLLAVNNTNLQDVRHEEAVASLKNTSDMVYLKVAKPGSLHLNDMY

[15] = molecular target: Inadl_2, Q8NI35
Sequence of Inadl_2, Q8NI35 (Q8NI35 238-335): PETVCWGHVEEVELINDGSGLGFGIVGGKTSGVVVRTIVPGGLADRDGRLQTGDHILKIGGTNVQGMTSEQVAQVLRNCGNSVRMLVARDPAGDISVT

[16] = molecular target: T8, DFNB31_2, Q9P202
T8 sequence (Q9P202 274-371, limits assumed, looked up): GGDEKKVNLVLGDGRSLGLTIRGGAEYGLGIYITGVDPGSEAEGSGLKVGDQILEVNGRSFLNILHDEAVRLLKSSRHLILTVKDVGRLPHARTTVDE

[17] = molecular target: T9, DFNB31_3, Q9P202
T9 sequence (Q9P202 811-907, limits assumed, looked up): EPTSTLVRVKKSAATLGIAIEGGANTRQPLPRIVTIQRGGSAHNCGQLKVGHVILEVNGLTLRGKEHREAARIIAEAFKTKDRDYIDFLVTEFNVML

[18] = molecular target: Inadl_6, Q8NI35
Sequence of Inadl_6, Q8NI35 (Q8NI35 1058-1167): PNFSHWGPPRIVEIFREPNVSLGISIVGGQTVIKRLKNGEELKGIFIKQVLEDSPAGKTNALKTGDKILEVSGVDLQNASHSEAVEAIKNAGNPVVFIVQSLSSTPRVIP

[19] = molecular target: LAP2, Q96RT1
Sequence of LAP2, Q96RT1 (Q96RT1 other isoform, or with tags, fused parts or gaps): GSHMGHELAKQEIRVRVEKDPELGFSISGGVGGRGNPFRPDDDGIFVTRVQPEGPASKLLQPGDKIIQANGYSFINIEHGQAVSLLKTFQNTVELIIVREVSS

[20] = molecular target: T10, MPP6, Q9NZW5
T10 sequence (Q9NZW5 125-219, limits assumed, looked up): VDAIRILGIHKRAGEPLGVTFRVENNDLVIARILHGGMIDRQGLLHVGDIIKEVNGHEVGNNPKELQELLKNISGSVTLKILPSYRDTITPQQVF

[21] = molecular target: T11, SNTG1, Q9NSN8
T11 sequence (Q9NSN8 52-150, limits assumed, looked up): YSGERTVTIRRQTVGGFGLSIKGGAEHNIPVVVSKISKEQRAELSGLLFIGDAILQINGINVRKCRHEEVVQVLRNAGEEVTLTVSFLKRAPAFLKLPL

[22] = molecular target: Inadl_9, Q8NI35
Sequence of Inadl_9, Q8NI35 (Q8NI35 1530-1615): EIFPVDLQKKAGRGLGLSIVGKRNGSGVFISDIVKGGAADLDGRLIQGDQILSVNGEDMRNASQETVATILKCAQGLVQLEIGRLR

[23] = molecular target: LNX1_2, Q8TBB1
Sequence of LNX1_2, Q8TBB1 (Q8TBB1 371-470): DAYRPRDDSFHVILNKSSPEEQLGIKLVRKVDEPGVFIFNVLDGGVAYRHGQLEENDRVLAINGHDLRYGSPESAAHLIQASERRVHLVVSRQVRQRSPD

[24] = molecular target: DLG4_3, P78352
Sequence of DLG4_3, P78352 (P78352 306-403): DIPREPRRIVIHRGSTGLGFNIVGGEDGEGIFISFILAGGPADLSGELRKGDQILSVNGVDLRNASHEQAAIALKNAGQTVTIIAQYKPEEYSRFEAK

[25] = molecular target: GRASP, Q7Z6J2
Sequence of GRASP, Q7Z6J2 (Q7Z6J2 96-193): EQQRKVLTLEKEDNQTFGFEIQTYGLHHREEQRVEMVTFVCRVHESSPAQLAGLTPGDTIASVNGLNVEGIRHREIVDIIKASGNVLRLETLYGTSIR

[26] = molecular target: NHERF2_2, Q15599
Sequence of NHERF2_2, Q15599 (Q15599 142-238): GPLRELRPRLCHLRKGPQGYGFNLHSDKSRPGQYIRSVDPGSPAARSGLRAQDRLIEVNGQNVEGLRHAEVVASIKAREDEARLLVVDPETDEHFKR

[27] = plain residues with an end cap or a label only (N-terminal biotin on a linker: ado-ado)
[28] = plain residues with an end cap or a label only (N-terminal biotin on a linker: ahx)

Sequence of MAGI2_4, Q86UL8 (Q86UL8 772-865): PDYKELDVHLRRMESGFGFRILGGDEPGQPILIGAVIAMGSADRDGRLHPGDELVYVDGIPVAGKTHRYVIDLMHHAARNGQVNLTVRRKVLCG

- pKd [1, 27]: below the threshold
- pKd [2, 27]: below the threshold
- pKd [3, 27]: below the threshold
- pKd [4, 27]: below the threshold
- pKd [5, 27]: below the threshold
- pKd [6, 27]: 4.58
- pKd [7, 27]: 4.81
- pKd [8, 27]: 3.72
- pKd [9, 27]: 3.59
- pKd [10, 27]: below the threshold
- pKd [11, 27]: below the threshold
- pKd [12, 27]: 3.5
- pKd [13, 27]: below the threshold
- pKd [14, 27]: 4
- pKd [15, 27]: below the threshold
- pKd [16, 27]: 3.69
- pKd [17, 27]: 4.1
- pKd [18, 27]: below the threshold
- pKd [19, 27]: below the threshold
- pKd [20, 27]: below the threshold
- pKd [21, 27]: 4.36
- pKd [22, 27]: 3.51
- pKd [23, 27]: below the threshold
- pKd [24, 27]: 3.72
- pKd [25, 27]: 3.64
- pKd [26, 27]: below the threshold
Binder: PTPDLPQTRV [KLHDC7A, Q5VTJ3]

- pKd [1, 28]: 3.48
- pKd [2, 28]: below the threshold
- pKd [3, 28]: below the threshold
- pKd [4, 28]: below the threshold
- pKd [5, 28]: below the threshold
- pKd [6, 28]: 4.44
- pKd [7, 28]: below the threshold
- pKd [8, 28]: below the threshold
- pKd [9, 28]: below the threshold
- pKd [10, 28]: below the threshold
- pKd [11, 28]: 4.22
- pKd [12, 28]: below the threshold
- pKd [13, 28]: 3.85
- pKd [14, 28]: below the threshold
- pKd [15, 28]: below the threshold
- pKd [16, 28]: below the threshold
- pKd [17, 28]: below the threshold
- pKd [18, 28]: below the threshold
- pKd [19, 28]: below the threshold
- pKd [20, 28]: below the threshold
- pKd [21, 28]: below the threshold
- pKd [22, 28]: below the threshold
- pKd [23, 28]: below the threshold
- pKd [24, 28]: 3.78
- pKd [25, 28]: 4.56
- pKd [26, 28]: 4.03
Binder: TQKFRASTAL [FRMPD1, Q5SYB0]

The next lines start with the binder.

Binder: NTLNRKTTPV [CACNG8, Q8WXS5]
- pKd [1, 27]: 3.69
- pKd [2, 27]: below the threshold
- pKd [3, 27]: below the threshold
- pKd [4, 27]: below the threshold
- pKd [5, 27]: below the threshold
- pKd [6, 27]: 4.17
- pKd [7, 27]: 3.93
- pKd [8, 27]: below the threshold
- pKd [9, 27]: below the threshold
- pKd [10, 27]: 3.54
- pKd [11, 27]: 3.64
- pKd [12, 27]: 3.59
- pKd [13, 27]: 5.08
- pKd [14, 27]: 4.59
- pKd [15, 27]: below the threshold
- pKd [16, 27]: below the threshold
- pKd [17, 27]: below the threshold
- pKd [18, 27]: below the threshold
- pKd [19, 27]: below the threshold
- pKd [20, 27]: 3.93
- pKd [21, 27]: below the threshold
- pKd [22, 27]: below the threshold
- pKd [23, 27]: below the threshold
- pKd [24, 27]: 4.89
- pKd [25, 27]: 4.22
- pKd [26, 27]: below the threshold

Binder: ARGPPRESEV [FAM110D, Q8TAY7]
- pKd [1, 27]: 4.09
- pKd [2, 27]: below the threshold
- pKd [3, 27]: below the threshold
- pKd [4, 27]: below the threshold
- pKd [5, 27]: below the threshold
- pKd [6, 27]: 4.48
- pKd [7, 27]: 5.27
- pKd [8, 27]: below the threshold
- pKd [9, 27]: 4.97
- pKd [10, 27]: below the threshold
- pKd [11, 27]: 4.88
- pKd [12, 27]: below the threshold
- pKd [13, 27]: 4.48
- pKd [14, 27]: 5.19
- pKd [15, 27]: below the threshold
- pKd [16, 27]: 3.57
- pKd [17, 27]: below the threshold
- pKd [18, 27]: below the threshold
- pKd [19, 27]: 4.37
- pKd [20, 27]: below the threshold
- pKd [21, 27]: 5.23
- pKd [22, 27]: 3.53
- pKd [23, 27]: below the threshold
- pKd [24, 27]: 4.42
- pKd [25, 27]: below the threshold
- pKd [26, 27]: below the threshold
